Laboratory results taken from patent US20230235090A1 (HARBOUR BIOMED US, published 2023).

How the values were obtained:
cynomolgus monkey 4-1BB [1] = target: T1, cynomolgus monkey 4-1BB (cynomolgus monkey); test: FACS, CHO-K1/cyno 4-1BB cells [H]
T1 construct: whole, on cells; also called CHO-K1-cyno 4-1BB; CHO-K1/cyno4-1BB
Procedure: (§1) Antibody binding experiments at the cellular level were conducted using a CHO-K1 cell strain overexpressing human 4-1BB (CHO-K1-hu 4-1BB, Genescript) and a CHO-K1 cell strain overexpressing cynomolgus monkey 4-1BB (CHO-K1-cyno 4-1BB, Genescript). Briefly, the CHO-K1-hu 4-1BB and CHO-K1-cyno 4-1BB cells were digested and resuspended in DMEM complete medium, and the cell density was adjusted to 1×10⁶ cells/mL. […] The cells were incubated at 4° C. for 1 h away from light. Thereafter, the cells in each well were rinsed twice with 100 μL of pre-cooled PBS, and centrifuged at 500 g at 4° C. for 5 min, and then the supernatant was discarded. […] The plate was incubated away from light at 4° C. for 30 min. The cells in each well were rinsed twice with 100 μL of pre-cooled PBS, and centrifuged at 500 g at 4° C. for 5 min, and then the supernatant was discarded. Finally, the cells in each well were resuspended in 200 μL of pre-cooled PBS, and the fluorescence signal values were read using a BD FACS CANTOII.

human 4-1BB [2] = target: T2, human 4-1BB (human, UniProt Q07011 24-255); test: FACS, CHO-K1/hu 4-1BB cells [I]
T2 construct: whole, on cells; also called CD137; TNFRSF9
Procedure: (§2) This example is intended to investigate the in vitro binding activity of anti-human 4-1BB HCAb and H2L2 monoclonal antibodies to human and cynomolgus monkey 4-1BB. Antibody binding experiments at the cellular level were conducted using a CHO-K1 cell strain overexpressing human 4-1BB (CHO-K1-hu 4-1BB, Genescript) and a CHO-K1 cell strain overexpressing cynomolgus monkey 4-1BB (CHO-K1-cyno 4-1BB, Genescript). Briefly, the CHO-K1-hu 4-1BB and CHO-K1-cyno 4-1BB cells were digested and resuspended in DMEM complete medium, and the cell density was adjusted to 1×10⁶ cells/mL. […] The cells were incubated at 4° C. for 1 h away from light. Thereafter, the cells in each well were rinsed twice with 100 μL of pre-cooled PBS, and centrifuged at 500 g at 4° C. for 5 min, and then the supernatant was discarded. […] The plate was incubated away from light at 4° C. for 30 min. The cells in each well were rinsed twice with 100 μL of pre-cooled PBS, and centrifuged at 500 g at 4° C. for 5 min, and then the supernatant was discarded. Finally, the cells in each well were resuspended in 200 μL of pre-cooled PBS, and the fluorescence signal values were read using a BD FACS CANTOII.

human B7-H4 [3] = target: T3, human B7-H4 (human, UniProt Q7Z7D3 25-282); test: FACS, MDA-MB-468 cells [A]
T3 construct: whole, on cells; also called VTCN1; SK-BR-3 cell line highly expressing B7-H4
T3 sequence (looked up): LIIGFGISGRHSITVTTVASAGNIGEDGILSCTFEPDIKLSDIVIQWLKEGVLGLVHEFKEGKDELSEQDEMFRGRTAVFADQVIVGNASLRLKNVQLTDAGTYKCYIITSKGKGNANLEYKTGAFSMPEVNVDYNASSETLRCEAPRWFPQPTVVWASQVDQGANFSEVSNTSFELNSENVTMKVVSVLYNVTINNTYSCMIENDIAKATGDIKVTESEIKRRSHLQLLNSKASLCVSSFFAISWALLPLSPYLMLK

human B7-H4 [4] = target: T3, human B7-H4; test: FACS, SK-BR-3 cells [A]
Procedure: (§3) This example is intended to investigate the in vitro binding activity of anti-human B7-H4 H2L2 monoclonal antibody to human/cynomolgus monkey/mouse B7-H4. Antibody binding experiments at the cellular level were conducted using a CHO-K1 cell strain overexpressing cynomolgus monkey B7-H4 (CHO-K1/cyno B7-H4, prepared in-house by Harbour Biomed), a CHO-K1 cell strain overexpressing mouse B7-H4 (CHO-K1/m B7-H4, prepared in-house by Harbour Biomed) and an SK-BR-3 cell line highly expressing human B7-H4 (ATCC® HTB-30). Briefly, the CHO-K1/cyno B7-H4 cells, CHO-K1/m B7-H4 cells or SK-BR-3 cells were digested and resuspended with PBS containing 2% BSA. The cell density was adjusted to 1×10⁶ cells/mL. […] The cells were incubated at 4° C. for 2 h away from light. Thereafter, the cells in each well were rinsed twice with 100 μL of pre-cooled PBS containing 2% BSA, and centrifuged at 500 g at 4° C. for 5 min, and then the supernatant was discarded. […] The plate was incubated away from light at 4° C. for 1 h. The cells in each well were rinsed twice with 100 μL of pre-cooled PBS containing 2% BSA, and centrifuged at 500 g at 4° C. for 5 min, and then the supernatant was discarded. Finally, the cells in each well were resuspended in 200 μL of pre-cooled PBS containing 2% BSA, and the fluorescence signal values were read using an ACEA Novocyte3000 flow cytometer.

mouse B7-H4 = target: T4, mouse B7-H4 (mouse, UniProt Q7TSP5 25-257); test: FACS, CHO-K1/m B7H4 cells [C]
T4 construct: whole, on cells; also called CHO-K1/m B7-H4; CHO-K1/mB7-H4
T4 sequence (looked up): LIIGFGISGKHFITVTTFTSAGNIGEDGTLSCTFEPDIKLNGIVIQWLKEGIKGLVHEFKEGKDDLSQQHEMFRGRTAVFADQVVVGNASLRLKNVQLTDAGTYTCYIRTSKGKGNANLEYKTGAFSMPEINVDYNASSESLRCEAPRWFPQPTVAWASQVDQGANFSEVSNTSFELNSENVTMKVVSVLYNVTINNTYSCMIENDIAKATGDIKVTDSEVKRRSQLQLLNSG
Procedure: as §3

human B7-H4 [5] = target: T3, human B7-H4; test: FACS, SKBR3 cells [A]
cynomolgus monkey B7-H4 = target: T5, cynomolgus monkey B7-H4 (cynomolgus monkey, UniProt A0A2K5U6P5 25-282); test: FACS, CHO-K1/cyno B7H4 cells [B]
T5 construct: whole, on cells; also called CHO-K1/cyno B7-H4; CHO-K1/cynoB7H4
T5 sequence: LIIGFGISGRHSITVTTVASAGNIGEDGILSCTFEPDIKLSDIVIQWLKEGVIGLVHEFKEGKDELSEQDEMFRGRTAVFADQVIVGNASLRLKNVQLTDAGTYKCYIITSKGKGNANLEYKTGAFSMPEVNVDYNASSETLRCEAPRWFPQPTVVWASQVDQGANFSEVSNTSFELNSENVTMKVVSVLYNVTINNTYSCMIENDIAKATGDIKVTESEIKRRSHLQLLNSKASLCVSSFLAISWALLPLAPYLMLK
Procedure: as §3

cynomolgus monkey 4-1BB [6] = target: T1, cynomolgus monkey 4-1BB; test: FACS, CHO-K1/cyno 4-1BB cells [F]
Procedure: as §2

cynomolgus monkey 4-1BB [7] = target: T1, cynomolgus monkey 4-1BB; test: FACS, CHO-K1/cyno 4-1BB cells [D]
Procedure: as §2

cynomolgus monkey 4-1BB [8] = target: T1, cynomolgus monkey 4-1BB; test: FACS, CHO-K1/cyno 4-1BB cells [A]
Procedure: as §2

cynomolgus monkey 4-1BB [9] = target: T1, cynomolgus monkey 4-1BB; test: FACS, CHO-K1/cyno 4-1BB cells [C]
Procedure: as §2

cynomolgus monkey 4-1BB [10] = target: T1, cynomolgus monkey 4-1BB; test: FACS, CHO-K1/cyno 4-1BB cells [B]
Procedure: as §2

cynomolgus monkey 4-1BB [11] = target: T1, cynomolgus monkey 4-1BB; test: FACS, CHO-K1/cyno 4-1BB cells [E]
Procedure: as §2

human 4-1BB [12] = target: T2, human 4-1BB; test: FACS, CHO-K1/hu 4-1BB cells [G]
Procedure: as §2

human 4-1BB [13] = target: T2, human 4-1BB; test: FACS on CHO-K1-hu 4-1BB cells
cynomolgus monkey 4-1BB [14] = target: T1, cynomolgus monkey 4-1BB; test: FACS, CHO-K1/cyno 4-1BB cells [G]
Procedure: as §1

human 4-1BB [15] = target: T2, human 4-1BB; test: FACS, CHO-K1/hu 4-1BB cells [H]
Procedure: as §1

cynomolgus monkey 4-1BB [16] = target: T1, cynomolgus monkey 4-1BB; test: FACS, CHO-K1/cyno-4-1BB cells [B]
Procedure: (§4) Antibody binding experiments at the cellular level were conducted using a CHO-K1 cell strain overexpressing human 4-1BB (CHO-K1/h4-1BB, Gensript, #M00538), a CHO-K1 cell strain expressing cynomolgus monkey 4-1BB (CHO-K1/cyno4-1BB, Genscript, #M00569) and a CHO-K1 cell strain overexpressing mouse 4-1BB (CHO-K1/m4-1BB, Genscript, #M00568). Briefly, the CHO-K1/h4-1BB cells, CHO-K1/cyno 4-1BB cells and CHO-K1/m 4-1BB cells were digested and resuspended with PBS containing 2% FBS. The cell density was adjusted to 1×10⁶ cells/mL. […] The cells were incubated at 4° C. for 2 h away from light. Thereafter, the cells in each well were rinsed twice with 100 μL of a pre-cooled FACS buffer, PBS containing 2% FBS, and centrifuged at 500 g at 4° C. for 5 min, and then the supernatant was discarded. […] The plate was incubated away from light at 4° C. for 1 h. The cells in each well were rinsed twice with 100 μL of pre-cooled FACS buffer, and centrifuged at 500 g at 4° C. for 5 min, and then the supernatant was discarded. Finally, the cells in each well were resuspended in 200 μL of pre-cooled FACS buffer, and the fluorescence signal values were read using an ACEA Novocyte3000 flow cytometer.

human 4-1BB [17] = target: T2, human 4-1BB; test: FACS, CHO-K1/h4-1BB cells [L]
Procedure: (§5) Antibody binding experiments at the cellular level were conducted using a CHO-K1 cell strain overexpressing human 4-1BB (CHO-K1/hu 4-1BB, Genscript, #M00538) and a CHO-K1 cell strain overexpressing cynomolgus monkey 4-1BB (CHO-K1/cyno 4-1BB, Genscript, #M00569). Briefly, the CHO-K1-hu 4-1BB and CHO-K1/cyno 4-1BB cells were digested, resuspended in F12K complete medium, and washed once with PBS. The cell density was adjusted to 1×10⁶ cells/mL with PBS. […] The cells were incubated at 4° C. for 1 h away from light. Thereafter, the cells in each well were rinsed twice with 100 μL of pre-cooled PBS, and centrifuged at 500 g at 4° C. for 5 min, and then the supernatant was discarded. […] The plate was incubated away from light at 4° C. for 30 min. The cells in each well were rinsed twice with 100 μL of pre-cooled PBS, and centrifuged at 500 g at 4° C. for 5 min, and then the supernatant was discarded. Finally, the cells in each well were resuspended in 200 μL of pre-cooled PBS, and the fluorescence signal values were read using a BD FACS CANTOII or an ACEA NovoCyte flow cytometer.

human 4-1BB [18] = target: T2, human 4-1BB; test: FACS, CHO-K1/h4-1BB cells [A]
Procedure: as §4

human 4-1BB [19] = target: T2, human 4-1BB; test: FACS, CHO-K1/h4-1BB cells [K]
Procedure: as §5

human 4-1BB [20] = target: T2, human 4-1BB; test: FACS, CHO-K1/hu 4-1BB cells [A]
Procedure: as §2

T2 sequence (Q07011 24-255): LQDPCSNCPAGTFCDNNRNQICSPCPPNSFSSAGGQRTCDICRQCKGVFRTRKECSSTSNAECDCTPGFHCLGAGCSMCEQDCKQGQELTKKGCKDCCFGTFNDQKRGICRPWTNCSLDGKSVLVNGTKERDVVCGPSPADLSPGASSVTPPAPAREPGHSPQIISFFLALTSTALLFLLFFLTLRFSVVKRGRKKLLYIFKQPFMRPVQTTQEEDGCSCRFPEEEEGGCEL

B1: PR000448 (antibody, human IgG4 S228P, kappa, V domains shown)
VH: QVQLQQWGAGLLKPSETLSLTCAVYGGSFSGYYWSWIRQPPGKGLEWIGEIQHSGSTDSNPSLKGRVTFSVDTSKNQFSLKLNSVTAADTAVYYCARLTGPFDYWGQGTLVTVSS
VL: EIVMTQSPATLSVSPGERATLSCRASQSISSILAWYQQKPGQAPRLLIYGASTRATGIPARFSGSGSGTEFTLTISSLQSEDFAVYYCQQYYNWPLTFGGGTKVEIKR
notes: anti-4-1BB H2L2 recombinant fully human IgG antibody, human IgG1 / kappa
EC50 (cynomolgus monkey 4-1BB [1]): 1.06 nM
EC50 (human 4-1BB [2]): 0.947 nM

B2: control antibody 1 (PR000157) (antibody, V domains shown)
VH: EVQLVQSGAEVKKPGASVKVSCKASGYTFTSYWIGWVRQAPGQGLEWIGDIYPGGGYTNYNEKFKGRVTITRDTSTSTAYLELSSLRSEDTAVYYCARLAGSSYRGAMDSWGQGTLVTVSS
VL: DIQMTQSPSSLSASVGDRVTITCKASQGFNKYVAWYQQKPGKAPKLLIYYTSTLQPGVPSRFSGSGSGRDYTLTISSLQPEDFATYYCLQYGDLLYAFGQGTKVEIKR
notes: also called Positive control 1; 1D11.v1.9varC2
EC50 (read off the curve) (human B7-H4 [3]): ~6 nM
EC50 (human B7-H4 [4]): 1.2 nM
Maximum MFI (human B7-H4 [4]): 266000 MFI
EC50 (mouse B7-H4): 1.73 nM
Maximum MFI (mouse B7-H4): 1.75e+06 MFI
EC50 (read off the curve) (human B7-H4 [5]): ~4 nM
EC50 (cynomolgus monkey B7-H4): 2.1 nM
Maximum MFI (cynomolgus monkey B7-H4): 1.99e+06 MFI

B3: Utomilumab analog (PR000483) (antibody, human IgG2, lambda, V domains shown)
VH: EVQLVQSGAEVKKPGESLRISCKGSGYSFSTYWISWVRQMPGKGLEWMGKIYPGDSYTNYSPSFQGQVTISADKSISTAYLQWSSLKASDTAMYYCARGYGIFDYWGQGTLVTVSS
VL: SYELTQPPSVSVSPGQTASITCSGDNIGDQYAHWYQQKPGQSPVLVIYQDKNRPSGIPERFSGSNSGNTATLTISGTQAMDEADYYCATYTGFGSLAVFGGGTKLTVLG
notes: anti-4-1BB control antibody; also called Tab
EC50 (cynomolgus monkey 4-1BB [1]): 0.929 nM
EC50 (cynomolgus monkey 4-1BB [6]): 0.485 nM
Maximum MFI (cynomolgus monkey 4-1BB [6]): 11000 MFI
EC50 (cynomolgus monkey 4-1BB [7]): 3.46 nM
Maximum MFI (cynomolgus monkey 4-1BB [7]): 55500 MFI
EC50 (cynomolgus monkey 4-1BB [8]): 0.485 nM
Maximum MFI (cynomolgus monkey 4-1BB [8]): 11000 MFI
EC50 (cynomolgus monkey 4-1BB [9]): 3.46 nM
Maximum MFI (cynomolgus monkey 4-1BB [9]): 55500 MFI
EC50 (cynomolgus monkey 4-1BB [10]): 3.46 nM
Maximum MFI (cynomolgus monkey 4-1BB [10]): 55500 MFI
EC50 (cynomolgus monkey 4-1BB [11]): 0.485 nM
Maximum MFI (cynomolgus monkey 4-1BB [11]): 11000 MFI

B4: PR001842 (antibody, human IgG1, V domains shown)
VH: EVQLLESGGGLVQPGGSLRLSCAASGFTFSSYAMSWGRQAPGKGLEWVSAISGSGGSTYYADSVKGRFTISRDNSKNTLYLHMNSLRAEDTAVYYCAKEKVATTGDYYYDMDVWGQGTTVTVSS
notes: anti-4-1BB HCAb, human IgG1 Fc
EC50 (human 4-1BB [12]): 0.537 nM
EC50 (cynomolgus monkey 4-1BB [6]): 2.29 nM
Maximum MFI (cynomolgus monkey 4-1BB [6]): 9660 MFI

B5: PR007381 (antibody, human IgG1, V domains shown)
VH: EVQLLESGGGLVQPGGSLRLSCAASGFTFSNYAMSWVRQAPGKGLEWVSSIDASGGDTYYADSVKGRFTISRDNSKNTLYLQMNSLRAEDTAVYYCAKEGSHGTDDSHYDVDVWGQGTTVTVSS
notes: anti-4-1BB HCAb, human IgG1 Fc; also called germline variant of PR004469
binding result (human 4-1BB [13]): binds

B6: PR004469 (antibody, human IgG1, V domains shown)
VH: EVQLLESGGGLVQPGGSLRLSCAASGFTFSNYAMSWFRQPPETGLKWVSSIDASGGDTYYADSVKGRFTISRDNSKNTLYLQMNSLRAEDTAVYYCAKEGSHGTDDSHYDVDVWGQGTTVTVSS
notes: anti-4-1BB HCAb, human IgG1 Fc; also called PTM variant of PR001838 (G53A)
EC50 (cynomolgus monkey 4-1BB [14]): 0.568 nM
EC50 (human 4-1BB [15]): 1.29 nM
Maximum MFI (human 4-1BB [15]): 109000 MFI
EC50 (cynomolgus monkey 4-1BB [16]): 25.4 nM
EC50 (human 4-1BB [17]): 17 nM
EC50 (human 4-1BB [18]): 18 nM

B7: PR001760 (antibody, human IgG1, V domains shown)
VH: EVQLVESGGGVVQPGGSLRLSCAASGFTFSNYAMTWVRQAPEKGLEWVSSISGSGVSTYYADSVKGRFTISRDNSKNTLYLQMTRLTAEDTAVYFCAKEGSSETDDHYYNVDVWGQGTTVTVSS
notes: as for B4
EC50 (cynomolgus monkey 4-1BB [8]): 0.443 nM
Maximum MFI (cynomolgus monkey 4-1BB [8]): 17400 MFI
EC50 (human 4-1BB [19]): 3.76 nM
Maximum MFI (human 4-1BB [19]): 83600 MFI
EC50 (human 4-1BB [20]): 0.198 nM
Maximum MFI (human 4-1BB [20]): 1740 MFI
